Here are results for one molecule from patent US6710165B2, “IgE-dependent histamine-releasing factor-binding peptides” (priority 2000, dated 2004).

Data set [1] relates to COS-7 cells. Put plainly: HRF's capability of transiting cell membrane (confocal microscopy, Western blotting). Format: cell-based. To be noted: recombinant rat HRF added to COS-7 cell culture solution. The protocol: The full-length rat HRF sequence (Chitpatima, et al., 1988) amplified by PCR (polymerase chain reaction) was cloned in pRSET-A vector and then, overexpressed in E. coli. The expressed recombinant protein was purified by His-bound Ni column (Novagen) and then, added to COS-7 cell culture solution. COS-7 cells were immobilized with 3.7% formaldehyde containing Ca^2+ and Mg^2+ for 10 minutes. Then, the cells were stained with anti-His monoclonal antibodies (1:100) containing 0.1% saponin at room temperature for 1 hour. Subsequently, they were incubated with anti-mouse-FITC (1:100) secondary antibodies for 30 minutes. Anti-bleaching agent solution was added thereto and then, observation was made under laser confocal microscope (Leica TCSNT system).
Further, COS-7 cells cultivated in 100 mm culture plate were treated according to the above method. Then, the cells were divided into cytoplasmic fraction and cell membrane fraction. They were loaded onto 10% SDS-PAGE gel and then, Western blotting was carried out using anti-His monoclonal antibodies.
As shown in the figures, HRF was detected within the cells at 1 minute after its addition.
For orientation: A western blot detects proteins with antibodies after separation by electrophoresis.

Data set [2] relates to (Na,K)ATPase large cytoplasmic loop (CD3). Put plainly: Yeast 2-hybrid analysis of HRF binding to (Na,K)ATPase large cytoplasmic loop. On the set-up: species or system rat. Conditions: CD3 of (Na,K)ATPase α1 and α2 subunits as bait. The source says: The total cytoplasmic RNA was extracted from rat skeletal muscle and then, cDNA library for yeast 2-hybrid analysis was constructed by using pJG4-5 vector. CD3 region of (Na,K)ATPase α2 subunit was inserted to LexA DNA binding domain (pEG202 vector) and the inserts were used as bait for screening. Positive clones activating reporter gene were selected and sequence analyzed by sequencing, restriction mapping and BLAST search. Among those clones, one clone had the completely identical sequence with HRF.
CD3 regions of (Na,K)ATPase α1 and 2 subunits were inserted to pEG202 vector and then, the interaction by isoforms was examined. Yeast cells containing LexAop-LEU2 and LexAop-LacZ reporter genes (EGY48/pSH18-34) were transformed with all the constructs as prepared above and then, grown in a selective medium plate.

In data set [3] the test system is PC12 cells. The data set is described as follows: Inhibition of HRF-stimulated dopamine release by HRF-binding peptide. The data set is classed as cell-based. To be noted: 15 μg/ml of HRF. Here is the method: In order to confirm whether the peptides blocking histamine release by HRF also block neurotransmitters release in nerve cells, the peptide of SEQ ID No. 14 (p2) was tested for its effects on dopamine release stimulated by HRF according to the substantially same procedure as in Example 16.

For data set [4], the system named is (Na,K)ATPase. The data set is described as follows: Inhibitory activity on (Na,K)ATPase (86Rb+ tracer, K+-uptake). The data set is classed as cell-based. To be noted: 10˜20 μg/ml HRF. The protocol: RBL-2H3 cells were cultivated and sensitized according to the same procedures as in Example 6 and then, washed three times with Krebs-Ringer buffer (KRP, 140 mM NaCl, 5 mM KCl, 10 mM Na2HPO4, 1 mM MgSO4, 1.4 mM CaCl2, 2.5 mM glucose, pH 7.4). Subsequently, the cells were incubated at 37° C. for 15 minutes and then, thereto was added 0.1% bovine serum albumin (BSA)-containing KRP buffer comprising 1 mM ouabain. ^86Rb^+([…], NEN) was used as a tracer and the cells were cultivated for 5˜10 minutes. 10˜20 µg/ml HRF was added thereto and K^+-uptake was measured for 5, 10 and 15 minutes, respectively.

The test system of data set [5] is (Na,K)ATPase large cytoplasmic loop. The data set is described as follows: Coimmunoprecipitation in yeast cells. Format: binding, rat. The protocol:
In Glucosyl Ura-His-Trp- and galactosyl Ura-His-Trp-media, yeast cells transformed with the constructs prepared in Example 1 were grown, and the cells were harvested by centrifugation at 3,000×g for 5 minutes. The harvested cells were resuspended in yeast lysis buffer (YLB: 50 mM Tris pH 8.0, 5 mM MgCl2, 150 mM NaCl, 50 mM NaF, 2 mM ZnCl2, protease inhibitor cocktail) and subsequently, the suspension was added to glass beads and vortexed. Thereto was added RIPA buffer (10 mM Tris pH 8.0, 100 mM NaCl, 1 mM EDTA, 1% NP4O, 0.5% sodium deoxycholate, 0.1% SDS) and then, the whole mixture was centrifuged at 10,000×g, 4° C. for 30 minutes.
To the cell extracts as prepared above, IgG sorb (The Enzyme Center, Inc.) was added and then, the mixture was incubated at 4° C. for 30 minutes and centrifuged at 10,000×g for 5 minutes. Thereto was added affinity-purified anti-HA 12CA5 monoclonal antibodies and then, the resulting mixture was incubated for 3 hours or overnight at 4° C. 50% protein A agarose solution (Roche, USA) was added to the above immunocomplex and the whole mixture was incubated at 4° C. for 4 hours. After centrifugation for 5 seconds, the obtained pellets were washed with RIPA buffer and washing buffer (1 M NaCl, 10 mM Tris pH 8.0, 0.1% NP4O), respectively. The pellets were resuspended in 2×SDS sample buffer and then, the suspension was loaded onto SDS-PAGE gel. […]

For data set [6], the system named is RBL-2H3 cells. Put plainly: Histamine release by HRF (RIA). The data set is classed as cell-based. To be noted: IgE-sensitized RBL-2H3 cells, 20 μg/ml recombinant HRF. The protocol:
The full-length rat HRF sequence amplified by PCR was cloned in pRSET-A vector and then, overexpressed in E. coli. The expressed recombinant protein was purified using His-bound Ni column (Novagen) and used for stimulation of RBL-2H3 cells. RBL-2H3 cells were grown in 24-well plate at 1×10^6 cells, sensitized with rat IgE antibody (0.2 μg/ml, Serotec) for 45˜60 minutes and treated with 20 μg/ml of the recombinant HRF protein and the inhibitors as used above, respectively. The obtained sample was prepared to acylated histamine using RIA-analysis kit (Immunotech, France) and competitively bound to ^125I-acylated histamine and monoclonal antibodies. The sample was analyzed by γ-counter.

Data set [7] concerns RBL-2H3 cells. The data set is described as follows: Intracellular Ca2+ concentration (Fluo-3-AM). The data set is classed as cell-based. Here is the method:
RBL-2H3 cells were cultivated according to the same procedure as in Example 6 and then, washed with Krebs-Ringer buffer (KRH, 125 mM NaCl, 1.2 mM KH2PO4, 1.2 mM MgSO4, 6 mM glucose, 2 mM CaCl2, 25 mM Hepes, pH 7.4). Subsequently, they were incubated with 2 μM Fluo-3-AM (Molecular Probes, Eugene, Oreg.) and KRH buffer containing 0.2% BSA for 30 minutes and then, the culture was corrected with DMEM complete medium for 10˜30 minutes. Subsequently, the cells were washed with KRH buffer and sensitized according to the same procedure as in Example 6. After the sensitization, the cells were treated with HRF, anti-IgE (Serotec) and each inhibitor together with histamine releasing buffer (100 mM NaCl, 0.4 mM MgCl2, 5 mM KCl, 5.6 mM glucose, 0.1% BSA, 25 mM Hepes, pH 7.4) in the presence or absence of Ca^2+. The fluorescence of fluo-3AM was measured at 488/515 nm using laser scanning confocal microscope.

B1: HRF: recombinant full-length rat HRF overexpressed in E. coli; protein consisting of 172 amino acids (protein)
chain: MIIYRDLISHDELFSDIYKIREIADGLCLEVEGKMVSRTEGAIDDSLIGGNASAEGPEGEGTESTVVTGVDIVMNHHLQETSFTKEAYKKYIKDYMKSLKGKLEEQKPERVKPFMTGAAEQIKHILANFNNYQFFIGENMNPDGMVALLDYREDGVTPFMIFFKDGLEMEKC
modifications: left off: small tags and cut ends
notes: recombinant full-length rat HRF overexpressed in E. coli; protein consisting of 172 amino acids
In the case of B1, the “time after addition at which HRF was detected within the cells” value in data set [1] was found to be 1 min. Further, in data set [2], the “HRF binding to (Na,K)ATPase CD3 in yeast 2-hybrid” value is on record as “HRF receptor corresponds to large cytoplasmic loop (CD3) of (Na,K)ATPase”. The “increase of dopamine release” value in data set [3] is on record as “about 110%”. Further, the entries for the “decrease of (Na,K)ATPase activity” value in data set [4] (K+-uptake measured for 5 minutes), in data set [4] (K+-uptake measured for 10 minutes) and in data set [4] (K+-uptake measured for 15 minutes) were 10.8%, 40.4% and 50.7%, respectively. Further, in data set [5], the “interaction with (Na,K)ATPase large cytoplasmic loop, coimmunoprecipitation” value was “interaction between HRF and (Na,K)ATPase large cytoplasmic loop could be confirmed”. For the same molecule, in data set [6], the histamine release result is reported as “histamine was released by HRF”. For the same molecule, the “effect on intracellular Ca2+ concentration” value in data set [7] is recorded as “intracellular Ca^2+ concentration was increased”.
